Laboratory results from PMC2867295 (The Journal of Cell Biology, 2010).

Molecular target: mouse calmodulin, bacterially expressed and biotinylated (mouse, UniProt P0DP26 1-149, biotinylated (EZ-link Sulfo-NHS-LC-Biotinylation kit))
Test: far-Western, overlay or dot blot

B1: Pcdp1-2, fragment aa 447–530 of mouse Pcdp1 with the uncharacterized predicted CaM-binding motif (domain or fragment)
chain: PLVNNVWLTRHRAQRRFQQAARKIMLERRLLSMLGAIRGMDKESILRKIIQVNGKLIQGENPSRGRRAHLKQEDNIWRYSLESE
Does B1 bind?
Result: binds
